In one experiment the test system is male C57/BL6 mice. The experiment can be described thus: Acute liver damage induced by Jo2 antibody (Fas activation) in mice, treatment with AR. The class given is in vivo, mouse. On the procedure: The experiments were carried out in compliance with the guidelines of the University of Navarra relating to the use of laboratory animals. Cirrhosis was induced with CCl4 in male Wistar rats as described elsewhere [(16) Castilla-Cortazar, I., Garcia, M., Muguerza, B., Quiroga, J., Perez, R., Santidrian, S., Prieto, J. 1997. Hepatoprotective effects of insulin-like growth factor I in rats with carbon tetrachloride-induced cirrhosis. Gastroenterology 113:1682-1691). Two-thirds PH or sham operations were performed on male Wistar rats (150 g) and male C57/BL6 mice (20 g) according to the method of Higgins and Andersen [(17) Higgins, G. M., Andersen, R. M. 1931. Experimental pathology of liver: restoration of liver of the white rat following partial surgical removal. Arch. Pathol. 12:186-202. (18) Latasa, M. U., Boukaba, A., García-Trevijano, E. R., Torres, L., Rodríguez, J. L., Caballería, J., Lu, S. C., López-Rodas, G., Franco, L., Mato, J. M., et al. 2001. Hepatocyte growth factor induces MAT2A expression and histone acetylation in rat hepatocytes. Role in liver regeneration. FASEB J. 10.1096/fj.00-0556fje. (19) Chen, L., Zeng, Y., Yang, H., Lee, T. D., French, S. W., Corrales, F. J., García-Trevijano, E. R., Avila, M. A., Mato, J. M., and Lu, S. C. 2004. Impaired liver regeneration in mice lacking methionine adenosyltransferase 1A. FASEB J. 18: 914-916]. Following sedation, in the sham operated animals the liver was exposed and then returned to the abdominal cavity. Acute liver damage was induced in male C57/BL6 mice (20 g) (n=3-5 per condition and time point) by means of a single intraperitoneal injection of CCl4 (1 μl/g body weight in olive oil) (Sigma, St. Louis, Mo., USA) or Jo2 monoclonal antibody (4 μg/mouse in saline solution) (BD PharMingen, San Diego, Calif., USA) [(5),(20) Martínez-Chantar, M. L., Corrales, F. J., Martínez-Cruz, A., García-Trevijano, E. R., Huang, Z. Z., Chen, L. X., Kanel, G., Avila, M. A., Mato, J. M., Lu, S. C. 2002. Spontaneous oxidative stress and liver tumors in mice lacking methionine adenosyltransferase 1A. FASEB J. 10.1096/fj.02-0078fje]. The controls received an equivalent volume of olive oil or saline solution. In the cases indicated, the mice received an intraperitoneal injection of human recombinant AR (9.5 μg/mouse) (Sigma) 6 and 0.5 h before and 3 h after Jo2 antibody, or 0.5 h before and 12 h after CCl4. At the indicated timepoints, mice were subjected to blood sampling and the sera were analysed for alanine and aspartate aminotransferase (ALT and AST) as described elsewhere [(16) and (21) Lasarte, J. J., Sarobe, P., Boya, P., Casares, N., Arribillaga, L., López-Díaz of Cerio, A., Gorraiz, M., Borrás-Cuesta, F., Prieto, J. 2003. A recombinant adenovirus encoding hepatitis C virus core and E1 proteins protects mice against cytokine-induced liver damage. Hepatology 37: 461-470]. Mice were sacrificed by cervical dislocation, and the livers were quickly frozen in liquid nitrogen, or fixed in formalin and embedded in paraffin for staining with hematoxylin and eosin (H&E).
Caspase-3 activity in mouse hepatocytes and liver tissue lysates was assessed using the Caspase-3/CPP32 colorimetric assay kit (BioVision, Palo Alto, Calif., USA). Cells in culture (5×10^5 per condition) were lysed directly in the lysis buffer supplied with the kit after the corresponding treatments. Liver tissue was homogenized using a Dounce homogenizer in lysis buffer, followed by centrifugation at 15,000 rpm during 10 min. […]

The next experiment has as its system cultured rat hepatocytes. Kind of experiment: EGF-R and proliferation signaling pathways (Western blot of phosphorylation) in cultured rat hepatocytes. The class given is cell-based. As for the experimental part: Hepatocytes were isolated from male Wistar rats (150 g) and C57/BL6 mice (20 g) by perfusion with collagenase (Gibco-BRL, Paisley, UK) as described elsewhere [(18), (20)]. Cells (5×10^5 cells per well) were plated onto 6-well plates coated with collagen (type I collagen, Collaborative Biomedical, Bedford, Mass., USA). Cultures were maintained in MEM medium supplemented with 10% fetal calf serum (FCS), non-essential amino acids, glutamine 2 mM and antibiotics (all supplied by Gibco-BRL). After 2 h of incubation, the medium was removed and cells were again cultured in the same medium with 5% FCS. Where applicable, hepatocytes were treated with IL-1β or TNFα from Roche (Mannheim, Germany), HGF or forskolin from Calbiochem (San Diego, Calif., USA), IL6 from RD Systems (Wiesbaden-Nordenstadt, Germany), or PGE2 from Alexis QBiogene (Carlsbad, Calif., USA).
Homogenates from liver samples and isolated hepatocytes were subjected to Western blot analysis as described elsewhere [(19, (20)]. Antibodies used were: affinity purified and biotinylated polyclonal antibody specifically targeted to murine AR (BAF989)(RD Systems); specific antibodies for the p17 subunit of active caspase-3 (9664S), phosphorylated Akt (Ser473) (9271S) and phosphorylated STAT3 (Tyr^705) (9131S) (Cell Signaling, Beverly, Mass., USA); ERK1/2 (06-182), phosphorylated EGF-R (Tyr^1173)(05-483) and STAT3 (06-596)(Upstate Biotechnology, Charlottesville, Va., USA). All other antibodies were from Santa Cruz Biotechnology (Santa Cruz, Calif., USA): BclxL (sc8392), Bcl2 (sc7382), EGF-R (sc-03), phosphorylated ERK1/2 (Tyr^204) (sc7383), Akt (sc5298), JNK (sc571), and phosphorylated JNK (Thr^183/Tyr^185) (sc6254).
On the technique in general: Immunoblotting shows a protein as a band on a membrane.

Setting [1] is: rat hepatocytes, different times after addition of AR.

B1: amphiregulin (protein)
chain: SVRVEQVVKPPQNKTESENTSDKPKRKKKGGKNGKNRRNRKKKNPCNAEFQNFCIHGECKYIEHLEAVTCKCQQEYFGERCGEKSMKTHSMIDSSLSK
notes: polypeptide growth factor belonging to the EGF family, ligand of EGF receptor; human recombinant AR (Sigma) used
In the case of B1, the “serum transaminase (AST and ALT) elevation” value with male C57/BL6 mice (12 h after Jo2 (4 μg/mouse i.p.), AR 9.5 μg/mouse i.p. 6 and 0.5 h before and 3 h after Jo2) is “strongly suppressed”. Also, the “liver damage by histopathological analysis” value in the experiment with male C57/BL6 mice (12 h after Jo2, AR 9.5 μg/mouse i.p. 6 and 0.5 h before and 3 h after Jo2) is given as “almost completely avoided liver damage”. Moreover, the “induction of caspase-3 activity in mouse liver extracts” value in the experiment on male C57/BL6 mice (12 h after Jo2 injection, AR 9.5 μg/mouse i.p.) was “strongly inhibited”. The “levels of Bcl-xL protein in liver (Western blot)” value in the experiment on male C57/BL6 mice (AR and Jo2 versus Jo2 alone, 6 h after injection of Jo2, 12 h (figure legend)) was “greater”. Further, the “rupture of caspase-3 (p17 subunit of active caspase-3, Western blot) in liver” value in the experiment on male C57/BL6 mice (liver extracts after Jo2 injection, AR 9.5 μg/mouse i.p.) is “avoided”. Moreover, the “phosphorylation of EGF-R on tyrosine residues” value in the experiment with cultured rat hepatocytes (isolated rat hepatocytes treated with AR) was “rapid and transient phosphorylation”. Moreover, in the experiment on cultured rat hepatocytes (setting [1]), the JNK phosphorylation entry is reported as “observed JNK phosphorylation”, the “phosphorylation of Akt” value was “rapidly induces phosphorylation” and the “phosphorylation of ERK1/2” value is “rapidly induces phosphorylation”.

The values above are taken from patent publication US20080064629A1, “Amphiregulin as a Protective Agent in Acute Hepatic Injury” (priority 2004, published 2008).
